Experimental data as given in paper doi:10.1101/2021.05.06.441046.

How the values were obtained:
[1] = molecular target: 5P_FL2 spike (six-proline FL2 spike with P986 reverted to K986) (SARS-CoV-2) (UniProt P0DTC2); assay: negative-stain electron microscopy
[2] = molecular target: 5P_FL2 spike (six-proline FL2 spike with P986 reverted to K986) (SARS-CoV-2) (UniProt P0DTC2); assay: SEC
[3] = molecular target: VFLIP_D614G spike (VFLIP variant bearing the D614G mutation) (SARS-CoV-2) (UniProt P0DTC2); assay: cryo-EM structure
[4] = molecular target: 6P_DS3 spike (six-proline spike with the inter-protomer disulfide Y707C/T883C) (SARS-CoV-2) (UniProt P0DTC2); assay: non-reducing SDS-PAGE
[5] = molecular target: 6P_DS3 spike (six-proline spike with the inter-protomer disulfide Y707C/T883C) (SARS-CoV-2) (UniProt P0DTC2); assay: negative-stain electron microscopy
[6] = molecular target: 6P_DS3 spike (six-proline spike with the inter-protomer disulfide Y707C/T883C) (SARS-CoV-2) (UniProt P0DTC2); assay: SEC

5P_FL2 spike (six-proline FL2 spike with P986 reverted to K986) (from UniProt P0DTC2) (domain or fragment)
stoichiometry N [1]: 3
stoichiometry N [2]: 3

VFLIP_D614G spike (VFLIP variant bearing the D614G mutation) (from UniProt P0DTC2) (domain or fragment)
stoichiometry N [3]: 3

6P_DS3 spike (six-proline spike with the inter-protomer disulfide Y707C/T883C) (from UniProt P0DTC2 13-1208) (domain or fragment)
stoichiometry N [4]: 3
stoichiometry N [5]: 3
stoichiometry N [6]: 3
